PMC6274866

What was measured:
[1] = target: STIM2-2β-OASF (residues 238–504 containing the naturally occurring VAASYLIQ insertion after E383) (human); test: SEC-MALS; 1 mg/mL protein injected on Superdex 200 Increase 10/300 GL at 10 °C; 20 mM TRIS, 300 mM NaCl, 1 mM DTT, pH 8.0; without CaCl2; stoichiometric ratio = MALS molecular weight / theoretical monomer mass
[2] = target: STIM2-2β-OASF (residues 238–504 containing the naturally occurring VAASYLIQ insertion after E383) (human); test: SEC-MALS; 1 mg/mL protein injected on Superdex 200 Increase 10/300 GL at 10 °C; 20 mM TRIS, 300 mM NaCl, 1 mM DTT, pH 8.0; with 25 mM CaCl2; stoichiometric ratio = MALS molecular weight / theoretical monomer mass

Chain of STIM2-2β-OASF (residues 238–504 containing the naturally occurring VAASYLIQ insertion after E383) (domain or fragment) (Q9P246 238-504): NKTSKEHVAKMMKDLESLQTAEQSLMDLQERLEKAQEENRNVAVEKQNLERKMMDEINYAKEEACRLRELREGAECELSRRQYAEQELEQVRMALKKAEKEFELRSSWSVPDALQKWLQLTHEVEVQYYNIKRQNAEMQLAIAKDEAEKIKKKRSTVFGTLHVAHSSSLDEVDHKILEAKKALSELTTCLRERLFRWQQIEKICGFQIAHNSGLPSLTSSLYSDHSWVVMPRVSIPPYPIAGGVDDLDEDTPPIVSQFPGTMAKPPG

Question: Which stoichiometry N [1] does the source give for “STIM2-2β-OASF (residues 238–504 containing the naturally occurring VAASYLIQ insertion after E383) (domain or fragment)” here?
Answer: 1.96

Question: What about the stoichiometry N [2] of the same substance?
Answer: 1.97
